Experiment [1] concerns the target T1, CD20 (human, UniProt P11836 1-297).
T1 construct: whole, on cells; 2H7 is called murine anti-human CD20; also called CD20 presented on WIL-2S cells; CD20 on Ramos, BJAB, SU-DHL-6 and DoHH2 B cells
T1 sequence (looked up): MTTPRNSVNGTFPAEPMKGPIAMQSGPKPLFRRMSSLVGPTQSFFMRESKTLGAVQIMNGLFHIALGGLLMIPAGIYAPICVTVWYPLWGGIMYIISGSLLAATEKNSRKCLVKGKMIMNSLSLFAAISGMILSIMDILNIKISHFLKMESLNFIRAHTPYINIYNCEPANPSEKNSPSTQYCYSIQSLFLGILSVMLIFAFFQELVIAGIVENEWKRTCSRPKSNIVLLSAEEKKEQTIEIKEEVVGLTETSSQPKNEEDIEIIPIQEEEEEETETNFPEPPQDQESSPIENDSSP
Put plainly: sandwich flow cytometry: 2e12HL on WIL-2S cells (CD20), then CD28mIgG, then FITC anti-mouse. (In flow cytometry, cells or beads pass a laser one at a time.)

Experiment [2] deals with T1, CD20. Put plainly: flow cytometry on WIL2-S cells (CD20), purified protein at 5 ug/mL, FITC goat anti-human IgG 1:100. On the procedure: Each of the proteins was tested for binding at 5 μg/ml, and binding detected with FITC goat anti-human IgG at 1:100. Control is FITC goat anti-human IgG alone. See the description for FIG. 2 above for more complete descriptions of the modules of the molecules tested.

For experiment [3], the target named is T2, CD28mIgG (UniProt P10747 19-152).
T2 construct: Bought reagent; the construct is not described; also called CD28Ig (Ancell); CD28 fused to mouse antibody; not shown: mouse Ig part of the bought fusion; not described
The experiment is described as follows: Western blot, non-reducing, probed with CD28Ig and goat anti-mouse HRP conjugate. On the procedure: (§1) Electrophoresis was performed under non-reducing conditions, and without boiling samples prior to loading. After electrophoresis, proteins were transferred to PVDF membranes using a semi-dry electroblotter apparatus (Ellard, Seattle, Wash.) for 1 hour at 100 mAmp. Membranes were blocked in BLOTTO (5% nonfat milk in PBS) overnight with agitation. FIG. 9A: Membranes were incubated with the AbyD02429.2, a Fab directed to the 2H7 antibody, at 5 μg/ml in BLOTTO for one hour, then washed 3 times for 5 minutes each in PBS-0.5% Tween 20. Membranes were then incubated in 6×His-HRP for one hour at a concentration of 0.5 μg/ml. Blots were washed three times for 15 minutes each in PBST. Wet membranes were incubated with ECL solution for 1 minute, followed by exposure to X-omat film for 20 seconds.
(§2) FIG. 9B: Membranes were incubated with CD28Ig (Ancell, Bayport, Minn.) at 10 μg/ml in BLOTTO, then washed three times for 15 minutes each in PBS-0.5% Tween 20. Membranes were then incubated in goat anti-mouse HRP conjugate (CalTag, Burlingame, Calif.) at 1:3000 in BLOTTO. Membranes were washed three times, for 15 minutes each, then incubated in ECL solution for 1 minute, followed by exposure to X-omat film for 20 seconds.
On the technique in general: Immunoblotting shows a protein as a band on a membrane.

The target of experiment [4] is T1, CD20. Put plainly: flow cytometry, dilutions of crude COS supernatant on WIL-2S cells (CD20), FITC goat anti-human IgG. The method, then: Seeded plates containing the proteins were incubated on ice for one hour. Subsequently, the wells were washed once with 200 μl 1% FBS in PBS. Goat anti-human antibody labeled with FITC (Fc Sp) at 1:100 was then added to each well, and the plates were again incubated on ice for one hour. The plates were then washed once with 200 μl 1% FBS in PBS and the cells were re-suspended in 200 μl 1% FBS and analyzed by FACS.

Experiment [5] deals with T2, CD28mIgG. The experiment is described as follows: Western blot of non-reduced protein probed with CD28 murine IgG, then goat anti-mouse HRP. On the procedure:
as §1, §2

B1: 2e12 VHVL SMIP (Fc fusion)
chain: QVQLKESGPGLVAPSQSLSITCTVSGFSLTGYGVNWVRQPPGKGLEWLGMIWGDGSTDYNSALKSRLSITKDNSKSQVFLKMNSLQTDDTARYYCARDGYSNFHYYVMDYWGQGTSVTVSSGGGGSGGGGSGGGGSGGGGSDIVLTQSPASLAVSLGQRATISCRASESVEYYVTSLMQWYQQKPGQPPKLLISAASNVESGVPARFSGSGSGTDFSLNIHPVEEDDIAMYFCQQSRKVPWTFGGGTKLEIKR
notes: SMIP: scFv-hinge-CH2-CH3; also called 2E12IgG-VHVL SMIP; 2e12 HL SMIP; not shown: hinge-CH2-CH3 of human IgG
Consider B1, for which the binding result in experiment [1] is on record as “no binding (tested: 5 ug/ml)”.

B2: 2H7-sssIgG P238S/P331S-STD1-2e12 VHVL (bispecific antibody)
chain: QIVLSQSPAILSASPGEKVTMTCRASSSVSYMHWYQQKPGSSPKPWIYAPSNLASGVPARFSGSGSGTSYSLTISRVEAEDAATYYCQQWSFNPPTFGAGTKLELKDGGGSGGGGSGGGGSSQAYLQQSGAESVRPGASVKMSCKASGYTFTSYNMHWVKQTPRQGLEWIGAIYPGNGDTSYNQKFKGKATLTVDKSSSTAYMQLSSLTSEDSAVYFCARVVYYSNSYWYFDVWGTGTTVTVSEPKSSDKTHTSPPSPAPELLGGSSVFLFPPKPKDTLMISRTPEVTCVVVDVSHEDPEVKFNWYVDGVEVHNAKTKPREEQYNSTYRVVSVLTVLHQDWLNGKEYKCKVSNKALPASIEKTISKAKGQPREPQVYTLPPSRDELTKNQVSLTCLVKGFYPSDIAVEWESNGQPENNYKTTPPVLDSDGSFFLYSKLTVDKSRWQQGNVFSCSVMHEALHNHYTQKSLSLSPGKNYGGGGSGGGGSGGGGSGNSQVQLKESGPGLVAPSQSLSITCTVSGFSLTGYGVNWVRQPPGKGLEWLGMIWGDGSTDYNSALKSRLSITKDNSKSQVFLKMNSLQTDDTARYYCARDGYSNFHYYVMDYWGQGTSVTVSSGGGGSGGGGSGGGGSGGGGSDIVLTQSPASLAVSLGQRATISCRASESVEYYVTSLMQWYQQKPGQPPKLLISAASNVESGVPARFSGSGSGTDFSLNIHPVEEDDIAMYFCQQSRKVPWTFGGGTKLEIKR
notes: Assembled from modules as m10; also called 2H7-IgG-STD1-2E12 HL; 2H7-2E12 HL
As to B2, the binding result in experiment [2] was “binds”.

B3: SMIP-sized cleaved fragment (2H7-sss-hIgG) of 2H7-sss-hIgG-H6-2e12 (other)
chain: QIVLSQSPAILSASPGEKVTMTCRASSSVSYMHWYQQKPGSSPKPWIYAPSNLASGVPARFSGSGSGTSYSLTISRVEAEDAATYYCQQWSFNPPTFGAGTKLELKDGGGSGGGGSGGGGSSQAYLQQSGAESVRPGASVKMSCKASGYTFTSYNMHWVKQTPRQGLEWIGAIYPGNGDTSYNQKFKGKATLTVDKSSSTAYMQLSSLTSEDSAVYFCARVVYYSNSYWYFDVWGTGTTVTVSEPKSSDKTHTSPPSPAPELLGGSSVFLFPPKPKDTLMISRTPEVTCVVVDVSHEDPEVKFNWYVDGVEVHNAKTKPREEQYNSTYRVVSVLTVLHQDWLNGKEYKCKVSNKALPASIEKTISKAKGQPREPQVYTLPPSRDELTKNQVSLTCLVKGFYPSDIAVEWESNGQPENNYKTTPPVLDSDGSFFLYSKLTVDKSRWQQGNVFSCSVMHEALHNHYTQKSLSLSPGK
notes: Cleavage product seen on gels and blots, about 52 kDa; also called cleaved forms of the multivalent constructs; peptide fragment containing (2H7-sss-hIgG), and missing the CD28 scFv BD2 portion; not shown: C-terminal end: cleaved at or near the H6 linker, site not determined
B3: the binding result in experiment [3] is on record as “no binding (tested: CD28Ig at 10 µg/ml)”.

B4: 2H7-sssIgG P238S/P331S-STD1-2e12 VLVH (bispecific antibody)
chain: QIVLSQSPAILSASPGEKVTMTCRASSSVSYMHWYQQKPGSSPKPWIYAPSNLASGVPARFSGSGSGTSYSLTISRVEAEDAATYYCQQWSFNPPTFGAGTKLELKDGGGSGGGGSGGGGSSQAYLQQSGAESVRPGASVKMSCKASGYTFTSYNMHWVKQTPRQGLEWIGAIYPGNGDTSYNQKFKGKATLTVDKSSSTAYMQLSSLTSEDSAVYFCARVVYYSNSYWYFDVWGTGTTVTVSEPKSSDKTHTSPPSPAPELLGGSSVFLFPPKPKDTLMISRTPEVTCVVVDVSHEDPEVKFNWYVDGVEVHNAKTKPREEQYNSTYRVVSVLTVLHQDWLNGKEYKCKVSNKALPASIEKTISKAKGQPREPQVYTLPPSRDELTKNQVSLTCLVKGFYPSDIAVEWESNGQPENNYKTTPPVLDSDGSFFLYSKLTVDKSRWQQGNVFSCSVMHEALHNHYTQKSLSLSPGKNYGGGGSGGGGSGGGGSGNSDIVLTQSPASLAVSLGQRATISCRASESVEYYVTSLMQWYQQKPGQPPKLLISAASNVESGVPARFSGSGSGTDFSLNIHPVEEDDIAMYFCQQSRKVPWTFGGGTKLEIKRGGGGSGGGGSGGGGSQVQLKESGPGLVAPSQSLSITCTVSGFSLTGYGVNWVRQPPGKGLEWLGMIWGDGSTDYNSALKSRLSITKDNSKSQVFLKMNSLQTDDTARYYCARDGYSNFHYYVMDYWGQGTSVTVSS
notes: also called 2H7-IgG-STD1-2E12 LH; 2H7-2E12 LH
Take B4: the binding result in experiment [4] was “binds”.

B5: TRU-015 (Fc fusion, not shown: a dimerising Fc or GST)
chain: QIVLSQSPAILSASPGEKVTMTCRASSSVSYMHWYQQKPGSSPKPWIYAPSNLASGVPARFSGSGSGTSYSLTISRVEAEDAATYYCQQWSFNPPTFGAGTKLELKDGGGSGGGGSGGGGSSQAYLQQSGAESVRPGASVKMSCKASGYTFTSYNMHWVKQTPRQGLEWIGAIYPGNGDTSYNQKFKGKATLTVDKSSSTAYMQLSSLTSEDSAVYFCARVVYYSNSYWYFDVWGTGTTVTVS
notes: SMIP: scFv-hinge-CH2-CH3; also called 2H7 SMIP; CD20 SMIP (TRU015)
On to B5, for which the binding result in experiment [5] is “no binding”.

Source of the values: patent publication US20140154252A1 (EMERGENT PRODUCT DEVELOPMENT SEATTLE, published 2014).
